The record followed here is article PMC4031084, “The Phytochrome B/Phytochrome C Heterodimer Is Necessary for Phytochrome C-Mediated Responses in Rice Seedlings” (PLoS ONE, 2014).

The target of one data set is T1, recombinant rice phyA (Oryza sativa, UniProt Q10DU0).
T1 construct: full length; phytochromobilin-producing E. coli Rosetta 2; homodimer on SEC
T1 sequence (Q10DU0 1-1128): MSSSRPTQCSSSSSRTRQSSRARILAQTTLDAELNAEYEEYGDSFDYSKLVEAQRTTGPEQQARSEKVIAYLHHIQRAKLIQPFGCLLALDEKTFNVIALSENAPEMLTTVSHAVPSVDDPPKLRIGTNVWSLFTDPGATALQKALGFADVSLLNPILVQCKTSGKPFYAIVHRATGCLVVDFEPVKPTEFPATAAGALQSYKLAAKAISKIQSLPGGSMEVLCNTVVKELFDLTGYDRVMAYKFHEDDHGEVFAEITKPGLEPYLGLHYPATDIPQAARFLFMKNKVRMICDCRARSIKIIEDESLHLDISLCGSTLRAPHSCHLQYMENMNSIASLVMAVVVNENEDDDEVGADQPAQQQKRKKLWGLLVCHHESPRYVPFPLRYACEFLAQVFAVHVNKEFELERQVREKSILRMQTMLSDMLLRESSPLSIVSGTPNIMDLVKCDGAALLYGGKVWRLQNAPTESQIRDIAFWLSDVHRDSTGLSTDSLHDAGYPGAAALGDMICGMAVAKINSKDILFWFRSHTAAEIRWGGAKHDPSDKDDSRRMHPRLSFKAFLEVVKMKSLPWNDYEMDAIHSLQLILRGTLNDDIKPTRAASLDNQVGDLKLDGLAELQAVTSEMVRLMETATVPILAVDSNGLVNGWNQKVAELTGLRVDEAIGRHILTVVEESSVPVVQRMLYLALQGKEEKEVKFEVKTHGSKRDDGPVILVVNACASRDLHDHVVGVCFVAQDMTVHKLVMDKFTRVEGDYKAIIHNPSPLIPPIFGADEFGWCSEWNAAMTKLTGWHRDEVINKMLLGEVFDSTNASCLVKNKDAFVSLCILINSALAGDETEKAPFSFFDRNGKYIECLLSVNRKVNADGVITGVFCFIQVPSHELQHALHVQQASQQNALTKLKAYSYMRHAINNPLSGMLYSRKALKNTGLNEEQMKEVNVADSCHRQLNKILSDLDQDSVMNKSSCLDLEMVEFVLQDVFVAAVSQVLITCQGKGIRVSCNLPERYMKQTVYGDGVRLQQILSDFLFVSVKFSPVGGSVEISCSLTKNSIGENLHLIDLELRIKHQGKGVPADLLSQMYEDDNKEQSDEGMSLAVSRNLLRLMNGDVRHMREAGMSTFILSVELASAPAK
Description: R/FR absorbance difference spectroscopy of the purified holoprotein. Format: binding. As to conditions: covalent; chromophore assembled in E. coli.

A further data set deals with T2, recombinant rice phyC (Oryza sativa, UniProt Q10CQ8).
T2 construct: full length; phytochromobilin-producing E. coli Rosetta 2; monomer on SEC
T2 sequence (Q10CQ8 1-1137): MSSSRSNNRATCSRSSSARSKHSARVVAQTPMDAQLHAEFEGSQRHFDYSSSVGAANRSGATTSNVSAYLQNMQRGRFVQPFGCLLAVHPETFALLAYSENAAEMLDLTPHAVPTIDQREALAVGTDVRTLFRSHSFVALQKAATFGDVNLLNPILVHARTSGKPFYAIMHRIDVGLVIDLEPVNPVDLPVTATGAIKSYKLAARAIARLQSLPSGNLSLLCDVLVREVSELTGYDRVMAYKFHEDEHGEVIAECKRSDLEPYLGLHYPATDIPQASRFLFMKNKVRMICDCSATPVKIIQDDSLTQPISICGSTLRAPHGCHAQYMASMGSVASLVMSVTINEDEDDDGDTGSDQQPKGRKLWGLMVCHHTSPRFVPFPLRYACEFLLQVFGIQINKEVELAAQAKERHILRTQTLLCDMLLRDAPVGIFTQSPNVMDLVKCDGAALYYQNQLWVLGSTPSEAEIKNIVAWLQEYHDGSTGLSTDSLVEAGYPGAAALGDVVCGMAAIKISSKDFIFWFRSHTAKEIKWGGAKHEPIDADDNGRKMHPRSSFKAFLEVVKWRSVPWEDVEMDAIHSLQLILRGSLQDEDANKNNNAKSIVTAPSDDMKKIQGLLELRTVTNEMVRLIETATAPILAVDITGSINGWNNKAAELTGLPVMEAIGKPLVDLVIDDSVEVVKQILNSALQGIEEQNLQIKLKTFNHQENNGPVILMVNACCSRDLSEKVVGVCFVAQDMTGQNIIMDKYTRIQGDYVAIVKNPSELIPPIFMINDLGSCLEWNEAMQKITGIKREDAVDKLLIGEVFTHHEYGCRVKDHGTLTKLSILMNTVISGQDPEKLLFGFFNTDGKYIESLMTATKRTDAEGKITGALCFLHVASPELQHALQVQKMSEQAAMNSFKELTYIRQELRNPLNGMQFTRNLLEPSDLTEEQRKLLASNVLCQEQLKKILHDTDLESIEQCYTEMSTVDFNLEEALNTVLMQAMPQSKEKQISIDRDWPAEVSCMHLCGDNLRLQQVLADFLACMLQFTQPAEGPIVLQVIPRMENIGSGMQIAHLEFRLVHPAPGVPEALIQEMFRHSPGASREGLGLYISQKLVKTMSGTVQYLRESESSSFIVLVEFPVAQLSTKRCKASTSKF
Described as above. Format: binding. The following applies: covalent; chromophore assembled in E. coli.

Data set [1] concerns the molecule itself. Put plainly: SEC; protein extracts (1 mg total soluble protein) of etiolated seedlings of WT and phytochrome single and double mutants on Superdex 200 HR 10/30; 50 mM Na-phosphate pH 7.0, 150 mM NaCl, 4 C; fractions immunoblotted with anti-PHYA, anti-PHYB, anti-PHYC; column calibrated with molecular weight standards. (In general: In gel filtration, larger molecules generally elute earlier.)

Data set [2] deals with the molecule itself. Description: SEC; recombinant phyA or phyC from E. coli fractionated on the same column; fractions #17-#24 immunoblotted with anti-His tag or anti-phytochrome antibodies.

As to `C=CC1=C(C)C(=CC2=NC(=Cc3[nH]c(C=C4NC(=O)C(C)C4=CC)c(C)c3CCC(=O)O)C(CCC(=O)O)=C2C)NC1=O` (centres unmarked) [phytochromobilin], the “R/FR absorbance difference spectroscopy of the purified holoprotein” value was “recombinant phyA was also expressed using the same experimental procedure” on recombinant rice phyA and “Recombinant phyC with phytochromobilins as a chromophore was expressed in E. coli” at recombinant rice phyC.

B1: rice phytochrome A (phyA), native (natural protein, UniProt Q10DU0 1-1128, looked up)
chain: T1 sequence (Q10DU0 1-1128)
notes: phytochrome A of rice (Oryza sativa L. cv. Nipponbare), native protein in seedling extracts; source: endogenous, soluble protein extract of etiolated rice seedlings
For B1, the “stoichiometry N” value in data set [1] is 2.

B2: recombinant rice phyA with phytochromobilin (natural protein, UniProt Q10DU0 1-1128, looked up)
chain: T1 sequence (Q10DU0 1-1128)
modifications: phytochromobilin as chromophore
notes: full length rice phytochrome A; also called recombinant phyA; source: E. coli Rosetta 2 cells expressing phytochromobilin, purified; not shown: His6, C-terminal, kept
B2: the “stoichiometry N” value in data set [2] is 2.

B3: rice phytochrome B (phyB), native (natural protein, UniProt Q10MG9 1-1171, looked up)
chain: MASGSRATPTRSPSSARPAAPRHQHHHSQSSGGSTSRAGGGGGGGGGGGGGAAAAESVSKAVAQYTLDARLHAVFEQSGASGRSFDYTQSLRASPTPSSEQQIAAYLSRIQRGGHIQPFGCTLAVADDSSFRLLAYSENTADLLDLSPHHSVPSLDSSAVPPPVSLGADARLLFAPSSAVLLERAFAAREISLLNPLWIHSRVSSKPFYAILHRIDVGVVIDLEPARTEDPALSIAGAVQSQKLAVRAISRLQALPGGDVKLLCDTVVEYVRELTGYDRVMVYRFHEDEHGEVVAESRRNNLEPYIGLHYPATDIPQASRFLFRQNRVRMIADCHAAPVRVIQDPALTQPLCLVGSTLRSPHGCHAQYMANMGSIASLVMAVIISSGGDDDHNISRGSIPSAMKLWGLVVCHHTSPRCIPFPLRYACEFLMQAFGLQLNMELQLAHQLSEKHILRTQTLLCDMLLRDSPTGIVTQSPSIMDLVKCDGAALYYHGKYYPLGVTPTEVQIKDIIEWLTMCHGDSTGLSTDSLADAGYPGAAALGDAVSGMAVAYITPSDYLFWFRSHTAKEIKWGGAKHHPEDKDDGQRMHPRSSFKAFLEVVKSRSLPWENAEMDAIHSLQLILRDSFRDSAEGTSNSKAIVNGQVQLGELELRGIDELSSVAREMVRLIETATVPIFAVDTDGCINGWNAKVAELTGLSVEEAMGKSLVNDLIFKESEETVNKLLSRALRGDEDKNVEIKLKTFGPEQSKGPIFVIVNACSSRDYTKNIVGVCFVGQDVTGQKVVMDKFINIQGDYKAIVHNPNPLIPPIFASDENTCCSEWNTAMEKLTGWSRGEVVGKLLVGEVFGNCCRLKGPDALTKFMIVLHNAIGGQDCEKFPFSFFDKNGKYVQALLTANTRSRMDGEAIGAFCFLQIASPELQQAFEIQRHHEKKCYARMKELAYIYQEIKNPLNGIRFTNSLLEMTDLKDDQRQFLETSTACEKQMSKIVKDASLQSIEDGSLVLEKGEFSLGSVMNAVVSQVMIQLRERDLQLIRDIPDEIKEASAYGDQYRIQQVLCDFLLSMVRFAPAENGWVEIQVRPNIKQNSDGTDTMLFLFRFACPGEGLPPEIVQDMFSNSRWTTQEGIGLSICRKILKLMGGEVQYIRESERSFFHIVLELPQPQQAASRGTS
notes: phytochrome B of rice (Oryza sativa L. cv. Nipponbare), native protein in seedling extracts; Native photoreceptor; source: endogenous, soluble protein extract of rice seedlings (etiolated or white-light-grown)
In the case of B3, in data set [1], the “stoichiometry N” value was 2.

Broadly, the stoichiometry N is the number of molecules, sites or subunits per partner or assembly.
